Results on one substance are retold here after patent US20210371506A1.

For one experiment, the target named is Aβ1-42 fibrils (human). As to the kind of experiment: SPR, Biacore T200; Aβ1-42 fibrils amine-coupled to CM5 chip, antibody flowed over.
For a further experiment, the target named is Aβ1-42 monomer (human). As to the kind of experiment: SPR, Biacore T200; IgG captured on Protein A chip, Aβ1-42 monomer flowed over.
Chain of Aβ1-42 monomer (human) (peptide, as listed by the source): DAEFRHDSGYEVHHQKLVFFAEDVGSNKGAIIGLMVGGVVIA

Chain of Aβ1-42 fibrils (human) (peptide, as listed by the source): as above

With Aducanumab (antibody), the Kd worked out at 0.0752 µM with Aβ1-42 fibrils (human) and 3.2 µM with Aβ1-42 monomer (human).

The Kd is the equilibrium constant for the complex coming apart. A higher Kd goes with weaker binding.
